Results as given in US20250269018A1, “COMBINED CANCER THERAPY WITH AN EPITHELIAL CELL ADHESION MOLECULE (EPCAM) INHIBITOR AND A HEPATOCYTE GROWTH FACTOR RECEPTOR (HGFR) INHIBITOR” (ACADEMIA SINICA, priority 2021, published 2025).

What was measured:
EpCAM and HGFR = target: T1, EpCAM and HGFR (Homo sapiens, UniProt P16422); experiment: Immunoprecipitation of endogenous EpCAM and HGFR in HCT116 cells; assay type: cell-based; settings: 6 h treatment, IP of endogenous proteins, FIG. 6E
T1 construct: as detected by IP of endogenous proteins in HCT116 cells; endogenous in cells; host or cells: HCT116
T1 sequence (P16422 24-314): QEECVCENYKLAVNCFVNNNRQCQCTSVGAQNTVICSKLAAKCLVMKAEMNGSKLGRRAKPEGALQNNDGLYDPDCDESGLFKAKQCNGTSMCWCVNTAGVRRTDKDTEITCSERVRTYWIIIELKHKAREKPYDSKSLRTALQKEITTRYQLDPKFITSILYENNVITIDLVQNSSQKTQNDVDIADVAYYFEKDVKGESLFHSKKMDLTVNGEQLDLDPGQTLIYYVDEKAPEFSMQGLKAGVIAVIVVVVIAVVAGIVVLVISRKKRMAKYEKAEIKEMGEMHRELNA
Procedure: (§1) FIGS. 6A to 6J. EpAb2-6 inhibits EpCAM and HGFR signaling and promotes active β-catenin and Snail protein degradation via activating GSK3β. (FIG. 6A) HCT116 cells were treated with 10 μg/ml control IgG (normal mouse IgG, NMIgG) or mouse EpAb2-6 (EpAb2-6) for 16 h, followed by treatment with EpEX-His (50 nM) for 15 min. Levels of phosphorylated HGFR, AKT, FAK, GSK3β, ERK, ADAM17, and presenilin 2 were examined by Western blotting. (FIG. 6B) HCT116 cells were treated with 10 μg/ml control IgG or mouse EpAb2-6 for 16 h, followed by treatment without or with HGF (0.5 nM) for 15 min. Levels of phosphorylated HGFR, AKT, and ERK were examined by Western blotting. HCT116 cells were treated with mouse EpAb2-6 (10 μg/ml) and HGF (0.5 nM). […] (FIG. 6D) Cell invasion was assessed by a Transwell assay with matrigel after 24 h. […] (FIG. 6F) EpEX-His (2 μg/ml) co-treated with 1 μg IgG or EpAb2-6 was added to HGFR-Fc-coated (1 μg/ml) ELISA plates and detected by TMB colorimetric peroxidase assay. (FIG. 6G) EMT associated protein levels were detected by Western blotting in HCT116 cells treated with NMIgG or EpAb2-6 for 24 h. (FIG. 6H) Protein expression was analyzed by Western blotting in HCT116 cells after treatment with EpAb2-6 and 2 μM GSK3β inhibitor (BIO) for 24 h. Quantification of the normalized protein expression in the bottom panel. […]

EpEX binding to HGFR = target: T2, EpEX binding to HGFR (Homo sapiens, UniProt P16422); experiment: ELISA of EpEX-His binding to HGFR-Fc-coated plates; settings: EpEX-His 2 μg/ml with 1 μg antibody; HGFR-Fc 1 μg/ml coated; FIG. 6F
T2 construct: the soluble extracellular domain of EpCAM (EpEX); His; made in house; host or cells: Expi293
T2 sequence (P16422 24-265 limits assumed): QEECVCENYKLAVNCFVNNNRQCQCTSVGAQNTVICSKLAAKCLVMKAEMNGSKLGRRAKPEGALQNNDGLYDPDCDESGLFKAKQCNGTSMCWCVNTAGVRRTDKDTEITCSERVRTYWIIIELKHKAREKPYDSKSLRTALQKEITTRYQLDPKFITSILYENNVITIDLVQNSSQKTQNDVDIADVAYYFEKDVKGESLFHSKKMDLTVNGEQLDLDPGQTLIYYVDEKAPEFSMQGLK
Procedure: as §1

B1: EpAb2-6: anti-EpCAM neutralizing monoclonal antibody targeting EpEX; VH SEQ ID NO: 15, VL SEQ ID NO: 16 (antibody, listed as Homo sapiens, V domains shown)
VH: VKLQESGPELKKPGETVKISCKASGYTFTDYSMHWVKQAPGKGLKWMGWINTETGEPTYADDFKGRFAFSLETSASTAYLQINNLKNEDTATYFCARTAVYWGQGTTVTVSS
VL: DIQMTQSPSSLSASLGERVSLTCRASQEISVSLSWLQQEPDGTIKRLIYATSTLDSGVPKRFSGSRSGSDYSLTISSLESEDFVDYYCLQYASYPWTFGGGTKLEIKRADAAPTVS
association between EpCAM and HGFR (EpCAM and HGFR): decreased the association between EpCAM and HGFR
EpEX binding to HGFR (EpEX binding to HGFR): inhibit EpEX binding to HGFR
